Data taken from the DeepSol protein solubility set.

test: soluble on expression in E. coli; label from the status in PepcDB or PDB records

Q: With “SKGLSFSSVYSVGNAAQTGVEDVLEHLDETFDAATSSHTLLLYIETISKPKRFLKHARSLVQKGCRIAAIKSGTSSDGGRAAASHTGAMLNSDVAVDALFRKAGVVRCYSREELATVGAVLQHPVLTGKNMAVITHAGGPAVMLTDALSNGGMSVPPIPEEKTRTLLSELFDGSSVANPIDILATGTAEQLSKVIDTCEKDLDTIDGMVVIFGSPGLFDVSDAYDVIREQQKKCKKPIYAVLPSVINAKEGMERFIAQGGILFEEEVALARAICKVYQTPKPEMTEESELPKAAEIRRLLAGKSGMLGTGDML” as the sequence, how does the “soluble on expression in E. coli” value read?
A: not soluble

Q: For “SKLLENSSFEAINSQLTVETGDAHIIGRIESYSCKMAGDDKHMFKQFCQEGQPHVLEALSPPQTSGLSPSRLSKSQGGEEEGPLSDKCSRKTLFYLIATLNESFRPDYDFSTARSHEFSREPSLSWVVNAVNCSLFSAVREDFKDLKPQLWNAVDEEICLAECDIYSYNPDLDSDPFGEDGSLWSFNYFFYNKRLKRIVFFSCRSISGSTYTPSEAGNELDMELGEEEVEEESRSRGSGAEETSTMEEDRVPVICI”, which “soluble on expression in E. coli” value is on record?
A: soluble

Q: Which “soluble on expression in E. coli” value does the source give for “SKRKARRGAGMPDYETVALVLQGGGALGAYQAGVYEGLHAAGIRPNWLAGISIGGINAAIIAGAPVDERVGRLRGFWEAICRPTGFVGLPWGDAWAALFANAPFGFGSNQSNGQLAAFNALTRGQPGFFEPRFPPPYLVQGGGAAATSFYDTTPLLQTLRDYVDFDLLNRGDVRVSLGAVNVRTGNFAYFDSRETVIRPEHVMASGALPPGFPAIEIDGEFYWDGGLVSNTPLTKVLAVHPMRDTLAFQVDLWPARGPLPTSLEEVAERQKDIQYSSRTRIVTDTFRRQLKLRRSLQRVLDRLPPQVRSSRELAQIRREACTPLVNVVNLIYEANQFERHSKDYEFNTESMREHWRFGLADIERTLAQPGV” here?
A: not soluble

Q: For “SKSNLEYSFSNILKNIFSPIREKESVKKVIYYSIPIALTTASYRLVNDLDGIFILSMLGAYDNGVYGY”, which “soluble on expression in E. coli” value is on record?
A: not soluble

Q: For “SKVWKYFGFDTNAEGCILQWKKIYCRICMAQIAYSGNTSNLSYHLEKNHPEEFCEFVKSN”, which “soluble on expression in E. coli” value is on record?
A: soluble

Q: With “SLALSPGNLQKTAAGPDGQPQLAEKAPEKAQVDVPAAGDTAGLQPQSGRSGANINRATLPDGNVVSVYSPRPRDSDGPVLMSGQTYGQDPRMATRPNEELLEETAFGQLPVVGADGLRPMEQYARPWSGARGTRVAIVVGGLGLSQTGSQKAIRDLPPEVTLGFAASGNSLQRWMQDARREGHEILLQIPLEPFGYPGTNPGPDTLLAGDPAKVNIDRLHRSMAKITNYTGVMNYLGGRFLAEQSALEPVMRDIGKRGLLFLDDGSSAQSLSGGIAKAISAPQGFADVLLDGEVTEASILRKLDDLERIARRNGQAIGVASAFDESIAAISKWSREAGGRGIEIVGVSALVSGQAGQ” as the sequence, how does the “soluble on expression in E. coli” value read?
A: soluble

Q: For “SLAWHQRKHTQATPLRDIAADYTLQDFKLVALDTQTGKESLTLLGQQMQHNQTDSSAEVTAPLFMIPDQAGQHWTLQAQTGWINKDGTLLRLRHDVKGDSPTDLGQLPTTFRTQSLDIYPNHHLAKTTDAVTITHQGIIQTGVGFEVNTKTQQYKFNSKVNTRYEPSAAR”, which “soluble on expression in E. coli” value is on record?
A: soluble

Q: For “SLDITFIDETEKVPTEEIKEIENLLQFAAGFLEIAEDTEMSVTFTDNAGIQMINRDYRGKDMPTDVISFALEDEGEDELPIIFDDEELAELPRNLGDLIISTERAAEQAVEYGHTLEREMGFLAVHGFLHLNGYDHMEPEDEKEMFGLQKEILDAYGLKR”, which “soluble on expression in E. coli” value is on record?
A: soluble

Q: With “SLDMIRIDSQTNSSHLKDEFQTLNSVTPRLQAEDCSIACLPRNHDKNRFMDMLPPDRCLPFLITIDGESSNYINAALMDSYRQPAAFIVTQYPLPNTVKDFWRLVYDYGCTSIVMLNEVDLSQGCPQYWPEEGMLRYGPIQVECMSCSMDCDVINRIFRICNLTRPQEGYLMVQQFQYLGWASHREVPGSKRSFLKLILQVEKWQEECEEGEGRTIIHCLNGGGRSGMFCAIGIVVEMVKRQNVVDVFHAVKTLRNSKPNMVEAPEQYRFCYDVALEYLESS” as the sequence, how does the “soluble on expression in E. coli” value read?
A: not soluble

Q: Which “soluble on expression in E. coli” value does the source give for “SLEEYHKWYYGNLVWTKTTYMGINCWKSVSDMWNYQEILSELQPSLVIEFGTRYGGSAVYFANIMRQIGQPFKVLTVDNSHKALDPRARREPDVLFVESSSTDPAIAEQIQRLKNEYPGKIFAILDSDHSMNHVLAEMKLLRPLLSAGDYLVVEDSNINGHPVLPGFGPGPYEAIEAYEDEFPNDYKHDAERENKFGWTSAPNGFLIRN” here?
A: soluble

Q: For “SLGGEVSGKGPAVAAREARDPLPDAGASPAPSRCCRRRSSVAFFAVCDGHGGREAAQFAREHFWGFIKKQKGFTSSEPAKVCAAIRKGFLACHLAMWKKLAEWPKTMTGLPSTSGTTASVVIIRGMKMYVAHVGDSGVVLGIQDDTKDDFVRAVEVTQDHKPELPKERERIEGLGGSVMNKSGVNRVVWKRPRLTHNGPVRRSTVIDQIPFLAVARALGDLWSYDFFSGEFVVSPEPDTSVHTLDPQKHKYIILGSDGLWNMIPPQDAISMCQDQEEKKYLMGEHGQSCAKMLVNRALGRWRQRMLRADNTSAIVICISPEVDNQGNFTNEDELYLNLTDGPSYNSQETCVMTPSPCSTPPVKSLEEDPWPRVNSKDHIPALVRSNAFSENFLEVSAEIARENVQGVVIPSKDPEPLEEN”, which “soluble on expression in E. coli” value is on record?
A: soluble

Q: Which “soluble on expression in E. coli” value does the source give for “SLGSQSSKAPRGDVTAEEAAGASPAKANGQENGHVKSNGDLSPKGEGESPPVNGTDEAAGATGDAIEPAPPSQGAEAKGEVPPKETPKKKKKFSFKKPFKMSGMSFKRNRKEGGGDSSASSPTEEEQEQGEIGACSDEGTAQEGKAAATPESQEPQAKGAEASAASEEEAGPQATEPSTPSGPESGPTPASAEQNE” here?
A: soluble

Q: Which “soluble on expression in E. coli” value does the source give for “SLHNGGLMAGWHLDTKMAQDIVARTMRIIDTNINVMDARGRIIGSGDRERIGELHEGALLVLSQGRVVDIDDAVARHLHGVRQGINLPLRLEGEIVGVIGLTGEPENLRKYGELVCMTAEMMLEQSRLMHLLAQDSRLREELVMNLIQAEENTPALTEWAQRLGIDLNQPRVVAIVEVDSGQLGVDSAMAELQQLQNALTTPERNNLVAIVSLTEMVVLKPALNSFGRWDAEDHRKRVEQLITRMKEYGQLRFRVSLGNYFTGPGSIARSYRTAKTTMVVGKQRMPESRCYFYQDLMLPVLLDSLRGDWQANELARPLARLKTMDNNGLLRRTLAAWFRHNVQPLATSKALFIHRNTLEYRLNRISELTGLDLGNFDDRLLLYVALQLDEER” here?
A: soluble

Q: Which “soluble on expression in E. coli” value does the source give for “SLIDNPHAQDYWPNRGQMDVQGLAVKYTEAGRAVLSDISFSVEGGLSMGLLGRTGSGKSTLLSALLRLASTDGEISIDGISWNSVPLEKWRKAFGVVPQKVFILTGTFRMNLDPHGRYSDEELWRVADQVGLKSVIEQFPDRLDFQLENGGSVLSHGHKQLMCLARSILSKARILLLDEPSAYLDTITLQVLRKTLKHAFSDCTVILSEAKVEPLLECDSFLVIEGSSVKSYDSIQKLLNEMSDLKQAVSAAD” here?
A: not soluble

Q: Which “soluble on expression in E. coli” value does the source give for “SLKCYTCKEPMTSASCRTITRCKPEDTACMTTLVTVEAEYPFNQSPVVTRSCSSSCVATDPDSIGAAHLIFCCFRDLCNSEL” here?
A: soluble

Q: For “SLKIFTSKKGQLSQLKQQKFKLEKDIQRLFEENLTLLSGYIFIRSEFSIKNSRIDTLAFDPETQAFVIIEYKRQQNSSVVDQGISYLNLMLEYKADFIVEYNEKQKVPLKRNDVDWSQSKVIFVSPAFNDFQIQATNFKDLPIELWEVNRFDNDIITLNIINKSKSAPNIKAVSNEKREEFSILKEIKVYQESDHLADKTDFIQELYEDFKQGILNLDPDIEINTRKLYIAFKKDRNIADIRIQQKNLKIWINLPYGELDDPKNLAKNVSNTGHWGNGDYEITIESTQYLEYIMSLIKQAIKD”, which “soluble on expression in E. coli” value is on record?
A: soluble

Q: Which “soluble on expression in E. coli” value does the source give for “SLKTKTFKMQLQFLSEQNLEINNNNQLLNQEKITYLQKIEQLKCKLEYQERMIKDSEKIREESFASAKAALFDLGKDLSKQLIEIHKMENNTTRELAEKNIETASQKFNTELERLITMVGALNKDIEQSKGTVDLIKQSLLSPIGAGLLSEITLENILKSSGLRPNLDFIMQYSLTTSDSVKLRPDAIIFLPSGNLMVIDSKASKFLVDSQDNSVHLSKTMNYHLKTLTNKDYAENILTNLNKKTQNFNNVITLMFLPTEQAVEKVIAANPEFLQKAWGCNIFPVGPAGLMNMLSFAKFQITDNRRSENYKVIIEEVRKLLSSIGTIADYSKKIGYNLQNMVTNYDKFAASFNRNVMSRVKSIQKLGIDSGNKIIPATLERYQIVSAKSEIIEVDVENQHK” here?
A: soluble

Q: Which “soluble on expression in E. coli” value does the source give for “SLLLKMDAFQDRLGTRGMLVRKGDHDETKVLPAVPVPQVRAANLPAAQAGDARIGTLPALFQALRASLPADEECNGLQAGDAQEPLTVTRLSTDKLLVSTDCWMGAYNVGTGVRVLNARAPFSCQPW” here?
A: not soluble

Q: With “SLLLKQAIVYPITSQKFQGDVLVIGEKIAEVKPSIQPTQDMTVIDARALHLLPGFIDVHTHLGLYDEGTGWAGNDANETSEVSTPHIRSLDGIHPFDIAFQDAVQNGITTVHVMPGSQNIIGGTTCVIKTAGTCIDHMIIQEPAGLKIAFGENPKKVHSNGTKESITRMGIMGLLRESFYEAQHYGHEADFRMLPILKALRREIPVRIHAHRADDISSALRFATEFNLDLRIEHCTEGHFIVEELSKHNLKVSVGPTLTRRSKIELKNKTWDTYHILSKNGVEVSITTDHPYTPIQYLNVCAAVAVREGLDEKTALEGITIFPARNLRLEDRIGSIETGKDADLVLWTHHPFHYLAKPVLTMIDGKIIYKKNKKN” as the sequence, how does the “soluble on expression in E. coli” value read?
A: soluble

Q: Which “soluble on expression in E. coli” value does the source give for “SLPLPLVVAVLDSEDEKEGRTCAIVAFGFRYIHPASGAQVDVPEGYVTDFASIPAPVRGLFPPFGRHAKAAVLHDWLYLIGEPGQRAFADRIFLDAMDDLRVSLVRRSIMHRAVRLAGGGAYAKEASTWARAFGNWRTGDRHTPPFTAESRYQAHWPVPPRPDFRP” here?
A: not soluble

Q: Which “soluble on expression in E. coli” value does the source give for “SLPMQHVHTSPVRDYRNRCARREGETVFQVVVEETDLRVTALAELATPMAAYVGELRAQLKVWMEFQPAFRHSLVPVEVPEGAPEVVRRMAHGARLVGVGPFAAVAGTIAQMVAERFVDVSPELIVENGGDLYLYSERDRVVGILPDPASGDMVGILVRAGTAPVSLCGSSARIGHSLSLGDGDLAVVRARDASLADAAATAFGNMLRRADDVAAVTERAAQLASIGIEGVYAQCGGRIGIWGDMELAVA” here?
A: soluble

Q: For “SLPVLAPVTKDPATSLYTIPFHDGASLVLDVAGPLVWSTCKGGQPPAEIPCSSPTCLLANAYPAPGCPAPSCGSDKHDKPCTAYPYNPVSGACAAGSLSHTRFVANTTDGSKPVSKVNVGVLAACAPSKLLASLPRGSTGVAGLANSGLALPAQVASAQKVANRFLLCLPTGGPGVAIFGGGPVPWPQFTQSMPYTPLVTKGGSPAHYISARSIVVGDTRVPVPEGALATGGVMLSTRLPYVLLRPDVYRPLMDAFTKALAAQHANGAPVARAVVAVAPFGVCYDTKTLGNNLGGYAVPNVQLGLDGGSDWTMTGKNSMVDVKQGTACVAFVEMKGVAAGDGRAPAVILGGAQMEDFVLDFDMEKKRLGFSRLPHFTGCGGL”, which “soluble on expression in E. coli” value is on record?
A: soluble

Q: Which “soluble on expression in E. coli” value does the source give for “SLPVSYIENQSAVINQGDFLTQLSNIKNYSSKLSTNFYDNYEKITNWVLSGANINELTQFNIQPQIMRGFDGFQNVLMTGYYSPILYARHSPQGQFKNPIYRMPVKKRLSRAQIYAGALAGKRLELAYSDSMLENFLLGVQGSGYVDFGDGNLNYFAYAGQNGYPYTAIGRLLVEDGEIPKEKMSIQAIREWGNRNPSRIQSLLERNEAYVFFKNDPSGKVKGSAGVPLVAMASVASDRNIIPSGSVLLVEVPDIDNNGNWLGTHKLHLMVALDVGGAVKGHHFDLYRGIGARAGHIAGLSKHYGRVWVLR” here?
A: soluble
